Biological target: the molecule itself
Assay: native gel or EMSA; non-denaturing Native-PAGE (BN sample buffer), transfer to PVDF, Western blot with mouse anti-human FXIII-B antibody

B1: recombinant wild type FXIII-B subunit (coagulation Factor XIII B subunit) (natural protein, human, UniProt P05160 21-661, looked up)
chain: EEKPCGFPHVENGRIAQYYYTFKSFYFPMSIDKKLSFFCLAGYTTESGRQEEQTTCTTEGWSPEPRCFKKCTKPDLSNGYISDVKLLYKIQENMRYGCASGYKTTGGKDEEVVQCLSDGWSSQPTCRKEHETCLAPELYNGNYSTTQKTFKVKDKVQYECATGYYTAGGKKTEEVECLTYGWSLTPKCTKLKCSSLRLIENGYFHPVKQTYEEGDVVQFFCHENYYLSGSDLIQCYNFGWYPESPVCEGRRNRCPPPPLPINSKIQTHSTTYRHGEIVHIECELNFEIHGSAEIRCEDGKWTEPPKCIEGQEKVACEEPPFIENGAANLHSKIYYNGDKVTYACKSGYLLHGSNEITCNRGKWTLPPECVENNENCKHPPVVMNGAVADGILASYATGSSVEYRCNEYYLLRGSKISRCEQGKWSSPPVCLEPCTVNVDYMNRNNIEMKWKYEGKVLHGDLIDFVCKQGYDLSPLTPLSELSVQCNRGEVKYPLCTRKESKGMCTSPPLIKHGVIISSTVDTYENGSSVEYRCFDHHFLEGSREAYCLDGMWTTPPLCLEPCTLSFTEMEKNNLLLKWDFDNRPHILHGEYIEFICRGDTYPAELYITGSILRMQCDRGQLKYPRCIPRQSTLSYQEPLRT
notes: Coagulation factor XIII B chain, human; F13B cDNA (ORF length 1986 bp) in the pEZ-M01 vector; The whole ORF was expressed; the secreted product was analysed; also called rFXIII-B; rFXIII-B2; source: HEK293T, transiently transfected, secreted into the culture medium
stoichiometry N: 2

— article PMC6514982, “Disruption of Structural Disulfides of Coagulation FXIII-B Subunit; Functional Implications for a Rare Bleeding Disorder” (International Journal of Molecular Sciences, 2019)
